T1: human SLITRK1 (human, UniProt Q96PX8 18-622, limits assumed)
T1 construct: The method text describes only the SLITRK6 ECD-his construct; also called Hu SLITRK1
T1 sequence (looked up): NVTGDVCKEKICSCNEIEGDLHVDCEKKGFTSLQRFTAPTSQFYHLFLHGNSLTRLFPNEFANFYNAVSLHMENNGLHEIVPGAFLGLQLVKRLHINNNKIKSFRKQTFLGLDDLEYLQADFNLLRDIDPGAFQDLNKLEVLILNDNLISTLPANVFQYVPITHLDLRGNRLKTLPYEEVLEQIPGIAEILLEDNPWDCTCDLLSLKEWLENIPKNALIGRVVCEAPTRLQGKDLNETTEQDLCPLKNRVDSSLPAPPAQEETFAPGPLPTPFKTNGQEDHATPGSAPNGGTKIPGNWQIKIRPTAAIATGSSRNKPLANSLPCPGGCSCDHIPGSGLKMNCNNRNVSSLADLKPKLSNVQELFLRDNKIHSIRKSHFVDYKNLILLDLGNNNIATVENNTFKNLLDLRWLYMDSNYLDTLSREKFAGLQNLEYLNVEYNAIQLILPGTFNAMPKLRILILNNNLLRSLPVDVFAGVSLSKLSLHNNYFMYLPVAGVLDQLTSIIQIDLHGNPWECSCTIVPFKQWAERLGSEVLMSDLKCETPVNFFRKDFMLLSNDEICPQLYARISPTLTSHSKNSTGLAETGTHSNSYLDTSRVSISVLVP

T2: human SLITRK4 (human, UniProt Q8IW52 19-618, limits assumed)
T2 construct: The method text describes only the SLITRK6 ECD-his construct; also called Hu SLITRK4
T2 sequence (looked up): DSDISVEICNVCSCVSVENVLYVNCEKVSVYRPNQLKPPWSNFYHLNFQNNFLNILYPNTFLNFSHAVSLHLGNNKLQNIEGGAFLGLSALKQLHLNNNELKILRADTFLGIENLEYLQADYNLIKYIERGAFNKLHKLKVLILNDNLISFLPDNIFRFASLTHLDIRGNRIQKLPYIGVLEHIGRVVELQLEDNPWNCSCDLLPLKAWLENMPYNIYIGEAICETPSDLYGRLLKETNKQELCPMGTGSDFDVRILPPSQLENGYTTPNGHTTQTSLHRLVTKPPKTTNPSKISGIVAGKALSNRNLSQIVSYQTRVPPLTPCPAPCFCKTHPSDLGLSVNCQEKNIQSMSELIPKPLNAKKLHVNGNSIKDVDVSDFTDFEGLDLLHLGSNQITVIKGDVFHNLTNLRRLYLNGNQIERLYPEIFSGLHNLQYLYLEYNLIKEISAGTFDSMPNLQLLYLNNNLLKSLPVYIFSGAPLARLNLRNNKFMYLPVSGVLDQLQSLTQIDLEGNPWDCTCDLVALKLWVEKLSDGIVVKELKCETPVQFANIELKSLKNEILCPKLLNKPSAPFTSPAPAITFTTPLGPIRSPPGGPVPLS

B1: hu1H2-03 with a LALA mutation (hu1H2-03-LALA) (antibody, V domains shown)
VH: EVQLVESGGGLVQPGGSLRLSCAASGFTFSDYGLHWVRQAPGKGLEWVSYISSGSSTVYFADTLKGRFTISRDNAKNSLYLQMNSLRAEDTAVYYCTRGTWYFDVWGRGTLVTVSS
VL: DIQMTQSPSSLSASVGDRVTITCRTSENIHSYLAWYQQKPGKSPQLLVYNAKTLADGVPSRFSGSGSGTDYTLTISSLQPEDFGTFYCQHFWTTSRTFGGGTKVEIK
B2: hu1H2-03-LD038 (antibody, V domains shown)
VH: B1 VH
VL: B1 VL
modifications: drug-linker LD038 conjugated to the antibody; positions not given
notes: also called hu1H2-03-LALA-LD038; hu1H2-03-LD038 (8)

Columns and labels:
human SLITRK6 on cells [1] = molecular target: T3, human SLITRK6 on cells (human, UniProt Q9H5Y7 27-841); assay: flow cytometry on RT4 cells, PE-conjugated anti-human Fc
T3 construct: whole, on cells
Procedure: (§1) The binding activity of mAbs and ADCs was evaluated by flow cytometer (Beckman, Cytoflex). Specifically, cells were incubated with 50 μL of mAbs or ADCs in series dilutions in PBS containing 1% BSA at 4° C. for 30 min. The cells were washed twice with PBS containing 1% BSA, stained with PE-conjugated anti human Fc in PBS containing 1% BSA and then incubated at 4° C. for 20 min. After that the cells were washed twice with PBS and analyzed by a flow cytometer.

human SLITRK6 on cells [2] = molecular target: T3, human SLITRK6 on cells; assay: flow cytometry on KYSE-30 cells, PE-conjugated anti-human Fc
Procedure: (§2) Specifically, cells were incubated with 50 μL of mAbs or ADCs in series dilutions in PBS containing 1% BSA at 4° C. for 30 min. The cells were washed twice with PBS containing 1% BSA, stained with PE-conjugated anti human Fc in PBS containing 1% BSA and then incubated at 4° C. for 20 min. After that the cells were washed twice with PBS and analyzed by a flow cytometer.

[3] = molecular target: T4, human SLITRK6 extracellular domain linked to his tag (human, UniProt Q9H5Y7 27-608); assay: BLI; antigen-his on anti-his tips, antibody or ADC as analyte; 1:1 fit
T4 construct: extracellular domain; also called huSLITRK6; Hu SLITRK6; not shown: his tag

mouse SLITRK6 = molecular target: T5, mouse SLITRK6 (mouse, UniProt Q8C110 23-609); assay: as above
T5 construct: extracellular domain; also called Mu SLITRK6; not shown: his tag

[4] = molecular target: T6, cynomolgus monkey SLITRK6 extracellular domain linked to his tag (cynomolgus monkey, UniProt G7PVK4 27-608); assay: as above
T6 construct: extracellular domain; also called cynoSLITRK6; Cyno SLITRK6; not shown: his tag

human SLITRK1 = molecular target: T1, human SLITRK1; assay: BLI, antigen on anti-his tips
Procedure: (§3) Binding kinetic of antibody-antigen was characterized by the bio-layer interferometry (BLI). 100 nM of SLITRK6′ extracellular domain linked to his tag was immobilized on anti-his biosensor tips (Fortebio). The sensors were rinsed with the buffer (50 mM Tris-AcOH, pH 6 or 7.5, 0.05% v/v surfactant P20) for 10 min to remove the unbound molecules, then dipped in the antibody solutions at different concentrations for 180 seconds and interspersed by a rinsing step in the buffer solution for 300 seconds. Binding affinity was calculated using ForteBio Data Acquisition 6.3 software (ForteBio) and was derived by fitting the kinetic data to a 1:1 Langmuir binding model utilizing global fitting algorithms. The dissociation or association equilibrium constant KD was calculated from the binding rate constants as KD=koff/kₒₙ (where koff and kₒₙ represent the dissociation kinetic constant and the association kinetic constant, respectively).

human SLITRK4 = molecular target: T2, human SLITRK4; assay: BLI, antigen on anti-his tips
Procedure: as §3

rat SLITRK6 = molecular target: T7, rat SLITRK6 (rat, UniProt D3ZP44 27-607); assay: BLI, antigen on anti-his tips
T7 construct: extracellular domain; not shown: his tag

human SLITRK6 on cells [5] = molecular target: T3, human SLITRK6 on cells; assay: flow cytometry on SW780 cells, PE-conjugated anti-human Fc
Procedure: as §1

human SLITRK6 on cells [6] = molecular target: T3, human SLITRK6 on cells; assay: as above; remark: listed apart in the source
Procedure: as §2

human SLITRK6 on cells [7] = molecular target: T3, human SLITRK6 on cells; assay: flow cytometry on KYSE-410 cells, PE-conjugated anti-human Fc
Procedure: as §2

human SLITRK6 on cells [8] = molecular target: T3, human SLITRK6 on cells; assay: flow cytometry on RT4 cells, PE-conjugated anti-human Fc; remark: listed apart in the source
Procedure: as §2

human SLITRK6 on cells [9] = molecular target: T3, human SLITRK6 on cells; assay: flow cytometry on CHP-212 cells, PE-conjugated anti-human Fc
Procedure: as §2

human SLITRK6 on cells [10] = molecular target: T3, human SLITRK6 on cells; assay: flow cytometry on 293F-huSLITRK6 cells, PE-conjugated anti-human Fc
Procedure: as §2

human SLITRK6 on cells [11] = molecular target: T3, human SLITRK6 on cells; assay: flow cytometry on RT112/84 cells, PE-conjugated anti-human Fc
Procedure: as §2

T5 sequence (Q8C110 23-609): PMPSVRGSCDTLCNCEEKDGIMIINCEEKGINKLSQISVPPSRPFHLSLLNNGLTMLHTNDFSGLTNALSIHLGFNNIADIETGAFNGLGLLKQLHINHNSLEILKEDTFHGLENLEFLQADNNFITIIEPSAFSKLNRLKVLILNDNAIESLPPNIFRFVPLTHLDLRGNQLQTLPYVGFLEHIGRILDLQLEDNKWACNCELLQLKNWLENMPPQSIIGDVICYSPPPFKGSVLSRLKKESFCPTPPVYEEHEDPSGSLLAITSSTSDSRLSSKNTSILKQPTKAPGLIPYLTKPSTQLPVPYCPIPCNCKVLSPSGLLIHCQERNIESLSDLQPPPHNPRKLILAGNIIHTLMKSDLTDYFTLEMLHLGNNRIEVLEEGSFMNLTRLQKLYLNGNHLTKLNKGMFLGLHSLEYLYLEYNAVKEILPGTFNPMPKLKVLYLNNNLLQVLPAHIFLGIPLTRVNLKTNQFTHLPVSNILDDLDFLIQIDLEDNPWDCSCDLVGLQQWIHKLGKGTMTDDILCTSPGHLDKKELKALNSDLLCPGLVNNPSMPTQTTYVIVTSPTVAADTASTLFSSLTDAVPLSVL

Row | Binder | EC50 (read off the curve) (human SLITRK6 on cells [1]) [nM] | EC50 (read off the curve) (human SLITRK6 on cells [2]) [nM] | Kd [3] [nM] | Kd (mouse SLITRK6) [nM] | Kd [4] [nM] | binding result (human SLITRK1) | binding result (human SLITRK4) | binding result (rat SLITRK6) | EC50 (read off the curve) (human SLITRK6 on cells [5]) [nM] | EC50 (read off the curve) (human SLITRK6 on cells [6]) [nM] | EC50 (read off the curve) (human SLITRK6 on cells [7]) [nM] | EC50 (read off the curve) (human SLITRK6 on cells [8]) [nM] | EC50 (read off the curve) (human SLITRK6 on cells [9]) [nM] | EC50 (read off the curve) (human SLITRK6 on cells [10]) [nM] | EC50 (read off the curve) (human SLITRK6 on cells [11]) [nM]
1 | B1 | ~0.3 | ~0.2 | 0.14 | 0.59 | 0.25 | no binding | no binding | no binding | ~0.3 | ~0.3 | ~0.2 | ~0.2 | ~0.2 | ~0.9 | ~0.2
2 | B2 |  | ~0.3 | 0.08 | 0.61 | 0.21 | no binding | no binding | no binding |  | ~0.4 | ~0.2 | ~0.3 | ~0.2 | ~1 | ~0.2

Reference: patent US20250296992A1 (Genmab, published 2025)
